doi:10.1101/2020.12.20.423689 (bioRxiv, 2020)

Target: mitoribosomal protein uL12m (human, UniProt P52815 37-198)
Assay: cryo-EM structure

binding result: binds
B1: human mitochondrial elongation factor G2 (EF-G2mt) (natural protein)
chain: MLTNLRIFAMSHQTIPSVYINNICCYKIRASLKRLKPHVPLGRNCSSLPGLIGNDIKSLHSIINPPIAKIRNIGIMAHIDAGKTTTTERILYYSGYTRSLGDVDDGDTVTDFMAQERERGITIQSAAVTFDWKGYRVNLIDTPGHVDFTLEVERCLRVLDGAVAVFDASAGVEAQTLTVWRQADKHNIPRICFLNKMDKTGASFKYAVESIREKLKAKPLLLQLPIGEAKTFKGVVDVVMKEKLLWNCNSNDGKDFERKPLLEMNDPELLKETTEARNALIEQVADLDDEFADLVLEEFSENFDLLPAEKLQTAIHRVTLAQTAVPVLCGSALKNKGIQPLLDAVTMYLPSPEERNYEFLQWYKDDLCALAFKVLHDKQRGPLVFMRIYSGTIKPQLAIHNINGNCTERISRLLLPFADQHVEIPSLTAGNIALTVGLKHTATGDTIVSSKSSALAAARRAEREGEKKHRQNNEAERLLLAGVEIPEPVFFCTIEPPSLSKQPDLEHALKCLQREDPSLKVRLDPDSGQTVLCGMGELHIEIIHDRIKREYGLETYLGPLQVAYRETILNSVRATDTLDRTLGDKRHLVTVEVEARPIETSSVMPVIEFEYAESINEGLLKVSQEAIENGIHSACLQGPLLGSPIQDVAITLHSLTIHPGTSTTMISACVSRCVQKALKKADKQVLEPLMNLEVTVARDYLSPVLADLAQRRGNIQEIQTRQDNKVVIGFVPLAEIMGYSTVLRTLTSGSATFALELSTYQAMNPQDQNTLLNRRSGLT
